Patent US20230235011A1

Experiments:
VEGF165 = VEGF165 (UniProt P15692); assay: SPR (Biacore T100, 25 C); binder captured on anti-human IgG CM5 chip, VEGF165 as analyte
[1] = biological target: recombinant human CD28 (human) (UniProt P10747); assay: ELISA; CD28 coated at 100 ng/ml, fusion protein titrated, anti-human IgG Fc-HRP

Chain of control protein 301-8 (aflibercept) (Fc fusion) (chain): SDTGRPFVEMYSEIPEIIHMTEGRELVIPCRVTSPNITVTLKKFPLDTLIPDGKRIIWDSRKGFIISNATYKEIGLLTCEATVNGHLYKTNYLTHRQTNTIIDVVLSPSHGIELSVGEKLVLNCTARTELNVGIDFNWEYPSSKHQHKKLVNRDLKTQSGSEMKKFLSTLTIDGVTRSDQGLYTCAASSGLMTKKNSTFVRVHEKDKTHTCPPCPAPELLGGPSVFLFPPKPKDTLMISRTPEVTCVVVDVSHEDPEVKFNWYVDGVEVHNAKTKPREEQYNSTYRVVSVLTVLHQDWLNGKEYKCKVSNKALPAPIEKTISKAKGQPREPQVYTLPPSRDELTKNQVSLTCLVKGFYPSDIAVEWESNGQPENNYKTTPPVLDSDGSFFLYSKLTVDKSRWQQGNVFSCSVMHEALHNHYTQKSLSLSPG
Chain of VEGF165 (P15692 other isoform, or with tags, fused parts or gaps limits assumed): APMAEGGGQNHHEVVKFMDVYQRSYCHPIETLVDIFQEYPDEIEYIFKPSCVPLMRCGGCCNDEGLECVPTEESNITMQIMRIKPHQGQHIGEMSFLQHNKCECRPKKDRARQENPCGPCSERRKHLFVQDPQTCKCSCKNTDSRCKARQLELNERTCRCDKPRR
Chain of fusion protein BY24.23 (hCD80-Fc, IgG4) (Fc fusion) (chain): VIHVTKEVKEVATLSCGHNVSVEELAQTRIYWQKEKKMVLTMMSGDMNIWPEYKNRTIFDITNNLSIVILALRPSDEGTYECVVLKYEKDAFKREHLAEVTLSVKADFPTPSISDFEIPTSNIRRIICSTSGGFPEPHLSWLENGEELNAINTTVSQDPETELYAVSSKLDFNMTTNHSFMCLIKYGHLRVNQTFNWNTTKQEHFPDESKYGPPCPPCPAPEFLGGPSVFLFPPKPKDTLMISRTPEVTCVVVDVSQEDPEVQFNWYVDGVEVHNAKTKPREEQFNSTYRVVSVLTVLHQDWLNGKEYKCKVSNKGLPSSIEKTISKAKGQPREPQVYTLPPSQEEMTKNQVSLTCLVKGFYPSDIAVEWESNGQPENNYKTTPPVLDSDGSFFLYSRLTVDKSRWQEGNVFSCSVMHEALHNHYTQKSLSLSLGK
Chain of fusion protein BY24.30 (Fc-hCD80, IgG4) (Fc fusion) (chain): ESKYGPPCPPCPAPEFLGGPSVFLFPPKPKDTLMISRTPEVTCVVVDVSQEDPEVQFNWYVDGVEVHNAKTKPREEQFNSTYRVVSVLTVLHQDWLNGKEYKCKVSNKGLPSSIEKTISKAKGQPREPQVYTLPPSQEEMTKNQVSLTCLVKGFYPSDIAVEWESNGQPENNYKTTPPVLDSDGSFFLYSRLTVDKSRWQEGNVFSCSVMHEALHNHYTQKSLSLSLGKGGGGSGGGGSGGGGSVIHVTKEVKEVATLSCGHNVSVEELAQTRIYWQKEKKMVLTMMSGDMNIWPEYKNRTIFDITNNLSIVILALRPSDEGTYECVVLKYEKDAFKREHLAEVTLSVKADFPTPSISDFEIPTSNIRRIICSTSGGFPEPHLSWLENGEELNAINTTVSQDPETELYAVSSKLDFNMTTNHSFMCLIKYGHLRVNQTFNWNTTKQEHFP

Substance	Kd (VEGF165) [pM]	koff (VEGF165) [s⁻¹]	kon (VEGF165) [M⁻¹ s⁻¹]	EC50 [1] [µg/mL]
control protein 301-8 (aflibercept) (Fc fusion)	7.35	4.33e-05	5.89e+06	–
fusion protein BY24.23 (hCD80-Fc, IgG4) (Fc fusion)	–	–	–	6.2
fusion protein BY24.30 (Fc-hCD80, IgG4) (Fc fusion)	–	–	–	0.97
